Consider one molecule from patent US20240226357A1, “Sanitization Method for Affinity Chromatography Matrices” (priority 2015, published 2024).

This series can be described thus: LC chromatograms (LC-MS) of ligands before and after incubation in 0.1 M peracetic acid. In kind it is physicochemical. The conditions noted are these: 1 h incubation in 0.1 M peracetic acid, UV 280 nm. Here is the method: The kinetics was measured by Surface Plasmon Resonance on a Biacore™ instrument. […] 1 ml rPrL and KappaSelect ligand were diluted to 10 mg/ml. • 3. Reference sample (0 h) was withdrawn, 100 μl and buffer exchanged to 50 mM Ammonium Bicarbonate. • 4. 10% 1 M PAA was added and the incubations started. • 5. Samples were withdrawn after 1, 2, 4, 8, 16 and 24 h, 100 μl and buffer exchanged to 50 mM Ammonium Bicarbonate to stop the oxidation reaction. • 6. The concentrations were measured in all samples by measuring the UV absorbance at 276 nm. • 7. The samples were then analyzed on LC-MS and Biacore.

B1: rPrL: recombinant Protein L (protein)
chain: AVENKEETPETPETDSEEEVTIKANLIFANGSTQTAEFKGTFEKATSEAYAYADTLKKDNGEYTVDVADKGYTLNIKFAGKEKTPEEPKEEVTIKANLIYADGKTQTAEFKGTFEEATAEAYRYADALKKDNGEYTVDVADKGYTLNIKFAGKEKTPEEPKEEVTIKANLIYADGKTQTAEFKGTFEEATAEAYRYADLLAKENGKYTVDVADKGYTLNIKFAGKEKTPEEPKEEVTIKANLIYADGKTQTAEFKGTFAEATAEAYRYADLLAKENGKYTADLEDGGYTINIRFAGKKVDEKPEE
On to B1, for which the “LC chromatograms before and after SIP (degradation)” value was “no signs of degradation”.
